From publication PMC9250616
Read-outs that look alike come from different tables or passages of the source.

Key:
[1] = molecular target: Protective antigen (Bacillus anthracis) (UniProt P13423); settings: cited from earlier work
[2] = molecular target: Protective antigen (Bacillus anthracis) (UniProt P13423); settings: cited from earlier work; remark: listed apart in the source
Laminin-111 = experiment: ELISA

CMG2 (from UniProt P58335)
Kd [1]: 0.2 nM

TEM8 (from UniProt Q9H6X2)
Kd [2]: 10 nM

biotinylated CMG2-AviTag construct (capillary morphogenesis gene 2, anthrax toxin receptor 2) (from UniProt P58335 34-489)
Kd (Laminin-111): 500 nM
